The results in this text go back to US20080044436A1, “Method for Screening and Compositions for Treating Cancers” (priority 2004, published 2008).

Type in all cases: cell-based, human
One test relates to p27^KiP1 gene. The test is described as follows: RNase protection assay of CDKI transcription in HeLa cells, p27. The settings on record: HeLa Tet-off cells, doxycycline removed. The procedure: All radiolabelled probes specific for the p130, Rb, p107, p53, p57, p27, p21, p19, p18, p14/p15, L32, and GAPDH genes were labelled with [α-^32P]UTP-ribonucleotide (PerkinElmer Life Sciences, Woodbridge, Ontario, CA) in the conditions specified in the “hCC-2 Muti-Probe Template Set” kit (Pharmingen, Mississauga, Ontario, CA). Ribonuclease protection experiments were carried out with the Ribonuclease III Protection kit (Ambion, Austin, Tex.). Ten micrograms of HeLa cell RNA were hybridized with the radiolabelled probe mixture at 56° C. and then digested for 45 min at 30° C. in RNase A/RNase T1 solution diluted 1:1000 in digestion buffer. The samples were separated on a polyacrylamide-6% urea gel.

Test [1] has as its system HeLa cells. The test is described as follows: Cell proliferation of HeLa Tet-off cells with inducible TReP-132 (HTO-GFP/TReP-132). To be noted: HTO-GFP/TReP-132 cells, Dox removed, after 4 days of culture; with Dox about 16 hours. An excerpt: HeLa Tet-off cells expressing the tTA transactivator under the control of tetracycline or doxycycline (Dox) (Clontech Laboratories, Palo Alto, Calif.) were stably transfected with the pBI-EGFP-TReP-132 vector or the pBI-EGFP control vector. In order to select stably transfected cells, the pcDNA6 plasmid (Invitrogen, Ontario, CA) containing the blasticidin resistance gene was cotransfected at a ratio of 1:50. For these transfections, the cells were first seeded in 6-well plates at an initial density of 1×10^5 cells per well, incubated for 24 hours, then transfected with ExGen 500 (MBI Fermentas, Flamborough, Ontario, CA) at a ratio of 5 μl of ExGen 500 for a total of 1 μg of plasmid such as described hereinabove in the section “Colony formation assays”. 48 hours post-transfection, cells were selected for 2 weeks with blasticidin (Sigma-Aldrich CA Ltd.). Clearly visible colonies were then were picked and subcloned on 12-well plates to enable growth. […]
(§1) The cell proliferation rate was determined by the cellular DNA content using the fluorochorome DABA ([…]). […] Fluorescence was measured on a Perkin-Elmer LS-2B Filter Fluorimeter at an excitation wavelength of 400 nm and an emission wavelength of 508 nm. The DNA content was calculated from a standard curve of known quantities of salmon sperm DNA.

For test [2], the system named is HeLa cells. The test is described as follows: Doubling time of reseeded HeLa colonies expressing exogenous TReP-132. The settings on record: HeLa cells expressing TReP-132; control pcDNA3 cells 18 hours. As for the experimental part:
HeLa cells were seeded in 12-well plates at an initial density of 100,000 cells per well, incubated for 24 hours, then transfected with each of the following plasmids: pcDNA3, pcDNA3-Luc, pcDNA3-SF-1, or pcDNA3-TReP-132, each containing the neomycin resistance gene. The transfections were carried out in triplicate with ExGen 500 (MBI Fermentas, Flamborough, Ontario, Canada) at a ratio of 5 μl of ExGen 500 per 1 μg of plasmid. After 12 hours of transfection, the medium was changed and the cells were incubated for an additional 8 hours. The cells were then trypsinized and transferred to a 100 mm petri dish. After 48 hours, the medium was supplemented with 400 μg/ml of the selection agent G418 (Sigma-Aldrich CA Ltd.). Distinct colonies could be detected after two weeks of selection with G418. The cells were then rinsed with PBS and fixed with a mixture of 10% acetic acid/10% methanol for 15 min, then colored with crystal violet (Sigma-Aldrich CA Ltd.).
as §1

The next test relates to pRb. Briefly: Western blot of pRb phosphorylation in HTO cells. The settings on record: HTO-GFP/TReP-132 cells after Dox removal, almost undetectable at 72 hours. The procedure:
FIG. 9B: Protein extracts (20 μg) of HTO cells expressing GFP or GFP and TReP-132 under the control of doxycycline, incubated or not with dox for the indicated times, were analyzed by western blot using anti-pRb antibodies directed against all pRb forms (hyperphopshorylated, phosphorylated and hypophosphorylated) or only against pRb phosphorylated at Ser 780, a target residue of cyclin D1/CDK4.
Cells were washed twice with cold PBS (Phosphate Buffered Saline), then harvested either in cold RIPA buffer (1×PBS, 1% Nonidet P-40, 0.5% sodium deoxycholate, 0.1% SDS, phosphatase and protease inhibitors) for co-immunoprecipitation analysis, or in lysis buffer (50 mM Tris, pH 8.0, 0.1% IGEPAL (Sigma)) for kinase assays. The lysates were incubated for 30 min on ice and cell debris was eliminated by centrifugation. The extracts were then aliquoted and stored at −80° C. For western blot analysis, RIPA or lysate buffer was used. For immunoprecipitations, whole cell lysates (1 mg) in RIPA buffer were preincubated with 0.1 μg of mouse or rabbit IgG and 20 μl of protein A-Sepharose beads (Amersham Biosciences, Uppsala, Sweden) for 30 min at 4° C. […] The blots were then visualized with ECL reagent and quantified with SCANWISE and Perfect-IMAGE V-5.3 software (CLARA VISION, France).

B1: TReP-132: Transcriptional Regulating Protein of 132 kDa, polypeptide comprising SEQ ID NO: 2; here expressed in cells from vectors (protein)
chain: MGDQQLYKTNHVAHGSENLFYQQPPLGVHSGLNHNYGNAVTGGGMDAPQASPISPHFPQDTRDGLGLPVGSKNLGQMDTSRQGGWGSHAGPGNHVQLRGNLANSNMMWGAPAQAEPTDGYQYTYSQASEIRTQKLTSGVLHKLDSFTQVFANQNLRIQVNNMAQVLHTQSAVMDGAPDSALRQLLSQKPMEPPAPAIPSRYQQVPQQPHPGFTGGLSKPALQVGQHPTQGHLYYDYQQPLAQVPVQGGQPLQAPQMLSQHMQQMQQHQYYPPQQQQQAGQQRISMQEIQTQPQQIRPSQPQPPPQQQQPQQLQLQQRQGSMQIPQYYQPQPMMQHLQEQQQQQMHLQPPSYHRDPHQYTPEQAHTVQLIPLGSMSQYYYQEPQQPYSHPLYQQSHLSQHQQREDSQLKTYSSDRQAQAMLSSHGDLGPPDTGMGDPASSDLTRVSSTLPHRPLLSPSGIHLNNMGPQHQQLSPSAMWPQMHLPDGRAQPGSPESSGQPKGAFGEQFDAKNKLTCSICLKEFKNLPALNGHMRSHGGMRASPNLKQEEGEKVLPPQPQPPLPPPPPPPPPPQLPPEAESLTPMVMPVSVPVKLLPPKPSSQGFTNSTVAAPSARDKPASSMSDDEMPVLEIPRKHQPSVPKAEEPLKTVQEKKKFRHRPEPLFIPPPPSYNPNPAASYSGATLYQSQLRSPRVLGDHLLLDPTHELPPYTPPPMLSPVRQGSGLFSNVLISGHGPGAHPQLPLTPLTPTPRVLLCRSNSIDGSNVTVTPGPGEQTVDVEPRINIGLRFQAEIPELQDISALAQDTHKATLVWKPWPELENHDLQQRVENLLNLCCSSALPGGGTNSEFALHSLFEAKGDVMVALEMLLLRKPVRLKCHPLANYHYAGSDKWTSLERKLFNKALATYSKDFIFVQKMVKSKTVAQCVEYYYTWKKIMRLGRKHRTRLAEIIDDCVTSEEEEELEEEEEEDPEEDRKSTKEEESEVPKSPEPPPVPVLAPTEGPPLQALGQPSGSFICEMPNCGAVFSSRQALNGHARIHGGTNQVTKARGAIPSGKQKPGGTQSGYCSVKSSPSHSTTSGETDPTTIFPCKECGKVFFKIKSRNAHMKTHRQQEEQQRQKAQKAAFAAEMAATIERTTGPVGAPGLLPLDQLSLIKPIKDVDILDDDVVQQLGGVMEEAEVVDTDLLLDDQDSVLLQGDAEL
B1: in the test on p27^KiP1 gene, the p27 gene transcription entry was “induction”. Besides, the doubling time result was “approximately 60 hours” with HeLa cells [1] and 30 h in the test on HeLa cells [2]. Also, the “phosphorylated pRb (ppRb) level” value with pRb is on record as “marked reduction”.
